Measured values reported in patent publication US20260137822A1 (ABDERA THERAPEUTICS, published 2026).

Legend:
[1] = biological target: T1, human DLL3 (recombinant antigen) (human, UniProt Q9NYJ7 27-492, limits assumed); assay: affinity to hDLL3, H435Q-Fc format; method not given
T1 construct: also called hDLL3
T1 sequence (looked up): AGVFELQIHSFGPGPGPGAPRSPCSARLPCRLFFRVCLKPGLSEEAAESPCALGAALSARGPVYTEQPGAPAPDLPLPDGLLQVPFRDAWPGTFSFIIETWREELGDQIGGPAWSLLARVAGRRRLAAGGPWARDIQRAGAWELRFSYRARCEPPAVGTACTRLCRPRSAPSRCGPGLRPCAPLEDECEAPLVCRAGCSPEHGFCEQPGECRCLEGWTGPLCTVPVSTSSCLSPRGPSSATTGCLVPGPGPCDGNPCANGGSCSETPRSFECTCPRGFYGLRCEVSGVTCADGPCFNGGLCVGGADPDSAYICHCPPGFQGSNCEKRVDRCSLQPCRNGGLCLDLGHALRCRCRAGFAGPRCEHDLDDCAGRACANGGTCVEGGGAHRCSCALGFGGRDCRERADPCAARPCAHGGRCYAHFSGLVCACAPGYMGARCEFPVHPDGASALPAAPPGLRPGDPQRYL

[2] = biological target: T2, human DLL3 on cells (HEK293T cells expressing human DLL3; SHP-77 cells) (human, UniProt Q9NYJ7 27-618); assay: cell-based or functional assay
T2 sequence (looked up): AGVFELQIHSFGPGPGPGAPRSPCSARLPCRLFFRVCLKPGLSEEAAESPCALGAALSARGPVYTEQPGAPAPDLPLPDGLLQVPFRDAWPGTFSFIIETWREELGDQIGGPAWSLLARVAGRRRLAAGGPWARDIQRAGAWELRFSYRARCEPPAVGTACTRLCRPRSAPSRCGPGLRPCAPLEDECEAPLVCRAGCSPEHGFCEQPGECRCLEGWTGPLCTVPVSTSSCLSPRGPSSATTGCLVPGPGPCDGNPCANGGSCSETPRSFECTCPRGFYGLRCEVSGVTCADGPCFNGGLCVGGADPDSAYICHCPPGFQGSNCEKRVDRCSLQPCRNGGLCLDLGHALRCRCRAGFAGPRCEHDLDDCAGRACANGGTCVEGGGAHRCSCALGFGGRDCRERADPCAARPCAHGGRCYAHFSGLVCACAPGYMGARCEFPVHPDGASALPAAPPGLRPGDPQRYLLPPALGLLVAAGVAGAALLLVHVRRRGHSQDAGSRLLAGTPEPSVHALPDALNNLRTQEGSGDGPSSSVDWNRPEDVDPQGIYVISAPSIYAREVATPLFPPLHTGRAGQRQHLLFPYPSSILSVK

[3] = biological target: T2, human DLL3 on cells (HEK293T cells …); assay: flow cytometry on SHP-77 cells (endogenous DLL3), H435Q-Fc format
[4] = biological target: T3, human FOLR1 (recombinant antigen) (human, UniProt P15328 25-234, limits assumed); assay: ELISA on hFOLR1
T3 construct: also called hFOLR1
T3 sequence (P15328 25-234 limits assumed): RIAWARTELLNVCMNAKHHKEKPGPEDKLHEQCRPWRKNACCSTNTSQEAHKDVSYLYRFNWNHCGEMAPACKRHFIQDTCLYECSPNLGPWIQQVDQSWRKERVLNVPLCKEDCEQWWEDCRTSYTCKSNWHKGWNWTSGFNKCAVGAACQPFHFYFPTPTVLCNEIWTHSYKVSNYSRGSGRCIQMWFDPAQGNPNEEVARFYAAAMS

[5] = biological target: T4, mouse FOLR1 (recombinant antigen) (mouse, UniProt P35846 25-232, limits assumed); assay: ELISA on mFOLR1
T4 construct: also called mFOLR1
T4 sequence (P35846 25-232 limits assumed): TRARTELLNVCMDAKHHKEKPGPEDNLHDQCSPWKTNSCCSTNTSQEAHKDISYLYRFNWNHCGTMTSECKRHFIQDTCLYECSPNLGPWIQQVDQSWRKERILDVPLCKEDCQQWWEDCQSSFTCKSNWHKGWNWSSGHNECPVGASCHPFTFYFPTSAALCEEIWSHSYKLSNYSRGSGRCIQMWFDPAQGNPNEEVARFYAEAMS

[6] = biological target: T4, mouse FOLR1 (recombinant antigen); assay: BLI (Octet), construct captured on AHC biosensor, mFOLR1 as analyte
[7] = biological target: T1, human DLL3 (recombinant antigen); assay: BLI (Octet), construct captured on AHC biosensor, hDLL3 as analyte
[8] = biological target: T3, human FOLR1 (recombinant antigen); assay: BLI (Octet), construct captured on AHC biosensor, hFOLR1 as analyte
FOLR1 on OVCAR3 cells = biological target: T5, FOLR1 on OVCAR3 cells (UniProt P15328 25-234); assay: cell binding to FOLR1-positive OVCAR3 cells
T5 construct: whole, on cells; OVCAR3 is a human ovarian cancer line; also called FOLR1-positive OVCAR3 cells
T5 sequence (P15328 25-234): as the sequence (P15328 25-234 limits assumed) above

[9] = biological target: T6, mouse DLL3 (recombinant antigen) (mouse, UniProt O88516 25-477, limits assumed); assay: BLI (Octet), construct captured on AHC biosensor, mDLL3 as analyte; row label taken as a misprint for the bispecific
T6 construct: also called mDLL3
T6 sequence (looked up): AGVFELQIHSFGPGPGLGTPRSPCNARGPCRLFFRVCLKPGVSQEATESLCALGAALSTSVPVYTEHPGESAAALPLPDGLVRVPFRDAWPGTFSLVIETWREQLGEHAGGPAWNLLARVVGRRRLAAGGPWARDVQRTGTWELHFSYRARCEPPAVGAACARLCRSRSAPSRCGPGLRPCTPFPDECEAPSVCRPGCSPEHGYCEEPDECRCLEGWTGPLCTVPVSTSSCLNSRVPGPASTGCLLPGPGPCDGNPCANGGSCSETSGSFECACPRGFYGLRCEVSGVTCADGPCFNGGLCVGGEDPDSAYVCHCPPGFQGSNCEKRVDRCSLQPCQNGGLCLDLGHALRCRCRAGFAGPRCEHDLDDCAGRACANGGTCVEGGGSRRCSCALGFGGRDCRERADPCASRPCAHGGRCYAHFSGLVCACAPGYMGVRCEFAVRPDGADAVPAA

[10] = biological target: T4, mouse FOLR1 (recombinant antigen); assay: BLI (Octet), VHH-Fc captured on AHC biosensor, mFOLR1 as analyte
[11] = biological target: T1, human DLL3 (recombinant antigen); assay: BLI (Octet), VHH-Fc captured on AHC biosensor, hDLL3 as analyte
[12] = biological target: T3, human FOLR1 (recombinant antigen); assay: BLI (Octet), VHH-Fc captured on AHC biosensor, hFOLR1 as analyte
[13] = biological target: T6, mouse DLL3 (recombinant antigen); assay: BLI (Octet), VHH-Fc captured on AHC biosensor, mDLL3 as analyte

B1: Clone 186 VHH-Fc, H435Q-Fc format (Fc fusion)
chain: QVQVVESGGGLVQPGGSLTLSCAASGFDFSTYTVNWYRQAPGKEREKVARISSTGTTTNYANSAKGRFTLSRDNAKNRVYLQMNNLKPEDTAVYFCNFERFDSNYWGQGTQVTVSS
notes: also called 186 (H435Q-Fc); not shown: hinge and human IgG1 Fc with H435Q (EU)
- Kd [1]: 0.55 nM
- H435Q-Fc SHP-77 Internalization FOI [2]: 1.18 fold over isotype
- EC50 [3]: 0.47 nM

B2: Clone 107 VHH-Fc, H435Q-Fc format (Fc fusion)
chain: QVQLVESGGGLVQAGDSLRLSCVASDRTFSSYAVGWFRQAPGKEREFVAAISWNGGRTLYTDSVTGRFTISRDNAKSTVYLQMNGLKPEDTAVYYCAARPAAPTRRLEYDYWGQGTQVTVSS
notes: not shown: hinge and human IgG1 Fc with H435Q (EU)
- Kd [1]: 0.72 nM
- H435Q-Fc SHP-77 Internalization FOI [2]: 1.27 fold over isotype
- EC50 [3]: 0.74 nM

B3: Anti-FOLR1x2; Anti-DLL3x2; GGGGSx3 (bispecific tetravalent VHH-VHH-Fc) (bispecific antibody, not shown: a dimerising Fc or GST)
chain: QVQLVESGGGLVQPGGSLRLSCAASGFTVSNSVMAWYRQTPGNEREFVAIINSIGITNYADSVKGRFTISRDNSKNTLYLQMNSLRAEDTAVYVCNRNFDRIYWGQGTLVTVSSGGGGSGGGGSGGGGSEVQLVESGGGEVQPGGSLRLSCAASGSIFSINAMGWYRQAPGKQRELVAGFTGDTNTIYAESVKGRFTISRDNAKNTVYLQMSSLRAEDTAVYYCAADVQLFSRDYEFYWGQGTLVTVKP
notes: homodimer; 104,948 Da; also called (GGGGS)3
- EC50 [4]: 0.13 nM
- EC50 [5]: 0.08 nM
- Kd [6]: 8.32 nM
- koff [6]: 0.00407 s⁻¹
- kon [6]: 490000 M⁻¹ s⁻¹
- Kd [7]: 1.53 nM
- koff [7]: 0.000306 s⁻¹
- kon [7]: 200000 M⁻¹ s⁻¹
- Kd [8]: 2.75 nM
- koff [8]: 0.00111 s⁻¹
- kon [8]: 405000 M⁻¹ s⁻¹
- EC50 (FOLR1 on OVCAR3 cells): 0.7 nM
- Kd [9]: 3.09 nM
- koff [9]: 0.000684 s⁻¹
- kon [9]: 222000 M⁻¹ s⁻¹

B4: Clone 24 VHH-Fc, H435Q-Fc format (Fc fusion)
chain: QVQYVESGGGLVQPGGSLRLSCAASGFTFSSYRINWYRQPPGKGRELVGSITDTGSTNYADSVKGRFTISRDNAKNTVYLQMSSLKPEDTAVYYCRAPTIAAYWGQGTQVTVSS
notes: also called 24 (H435Q-Fc); not shown: hinge and human IgG1 Fc with H435Q (EU)
- Kd [1]: 1.08 nM
- H435Q-Fc SHP-77 Internalization FOI [2]: 1.19 fold over isotype
- EC50 [3]: 1.2 nM

B5: Clone 100 VHH-Fc, H435Q-Fc format (Fc fusion)
chain: QVQLVESGGGSVQPGGSLRLSCAASGIVFNSDVMGWYRQVPGKPRELVATITGGGSTNYATSVKGRFTISRDNAKNTVYLQMNSLRPEDTAVYYCNGRRGDSMLAFWAQGTQVTVSS
notes: also called 100 (H435Q-Fc); not shown: hinge and human IgG1 Fc with H435Q (EU)
- Kd [1]: 0.2 nM
- H435Q-Fc SHP-77 Internalization FOI [2]: 1.19 fold over isotype
- EC50 [3]: 1.16 nM

B6: Clone 126 VHH-Fc, H435Q-Fc format (Fc fusion)
chain: QVQLVESGGGMVQPGGSLRLSCAASGITFSMYSMSWYRQPPGKQRELVAATTTFGSTNYADSVKGRFTISRDNAKNTVYLQMNSLKPEDTAVYLCNARFTSEEYWGQGTQVTVSS
notes: as for B2
- Kd [1]: < 1 nM
- H435Q-Fc SHP-77 Internalization FOI [2]: 1.19 fold over isotype
- EC50 [3]: 0.44 nM

B7: FOLR1 VHH (VHH-Fc control) (Fc fusion, not shown: a dimerising Fc or GST)
chain: QVQLVESGGGLVQPGGSLRLSCAASGFTVSNSVMAWYRQTPGNEREFVAIINSIGITNYADSVKGRFTISRDNSKNTLYLQMNSLRAEDTAVYVCNRNFDRIYWGQGTLVTVSS
- Kd [10]: 4.67 nM
- koff [10]: 0.00312 s⁻¹
- kon [10]: 668000 M⁻¹ s⁻¹
- EC50 [4]: 0.12 nM
- EC50 [5]: 0.08 nM
- binding result [11]: no binding
- Kd [12]: 2.19 nM
- koff [12]: 0.000828 s⁻¹
- kon [12]: 379000 M⁻¹ s⁻¹
- binding result [13]: no binding

B8: Anti-FOLR1x2; Anti-DLL3x2; GGSx4 (bispecific tetravalent VHH-VHH-Fc) (bispecific antibody, not shown: a dimerising Fc or GST)
chain: QVQLVESGGGLVQPGGSLRLSCAASGFTVSNSVMAWYRQTPGNEREFVAIINSIGITNYADSVKGRFTISRDNSKNTLYLQMNSLRAEDTAVYVCNRNFDRIYWGQGTLVTVSSGGSGGSGGSGGSEVQLVESGGGEVQPGGSLRLSCAASGSIFSINAMGWYRQAPGKQRELVAGFTGDTNTIYAESVKGRFTISRDNAKNTVYLQMSSLRAEDTAVYYCAADVQLFSRDYEFYWGQGTLVTVKP
notes: homodimer; 104,665 Da; also called (GGS)4
- EC50 [4]: 0.11 nM
- EC50 [5]: 0.07 nM
- Kd [6]: 7.99 nM
- koff [6]: 0.00386 s⁻¹
- kon [6]: 483000 M⁻¹ s⁻¹
- Kd [7]: 1.24 nM
- koff [7]: 0.000267 s⁻¹
- kon [7]: 215000 M⁻¹ s⁻¹
- Kd [8]: 2.32 nM
- koff [8]: 0.000932 s⁻¹
- kon [8]: 401000 M⁻¹ s⁻¹
- EC50 (FOLR1 on OVCAR3 cells): 0.59 nM
- Kd [9]: 2.88 nM
- koff [9]: 0.000642 s⁻¹
- kon [9]: 223000 M⁻¹ s⁻¹

B9: Anti-FOLR1x2; Anti-DLL3x2; GGSx3 (bispecific tetravalent VHH-VHH-Fc) (bispecific antibody, not shown: a dimerising Fc or GST)
chain: QVQLVESGGGLVQPGGSLRLSCAASGFTVSNSVMAWYRQTPGNEREFVAIINSIGITNYADSVKGRFTISRDNSKNTLYLQMNSLRAEDTAVYVCNRNFDRIYWGQGTLVTVSSGGSGGSGGSEVQLVESGGGEVQPGGSLRLSCAASGSIFSINAMGWYRQAPGKQRELVAGFTGDTNTIYAESVKGRFTISRDNAKNTVYLQMSSLRAEDTAVYYCAADVQLFSRDYEFYWGQGTLVTVKP
notes: homodimer; 104,263 Da; also called (GGS)3
- EC50 [4]: 0.14 nM
- EC50 [5]: 0.09 nM
- Kd [6]: 7 nM
- koff [6]: 0.00399 s⁻¹
- kon [6]: 553000 M⁻¹ s⁻¹
- Kd [7]: 1.43 nM
- koff [7]: 0.000312 s⁻¹
- kon [7]: 219000 M⁻¹ s⁻¹
- Kd [8]: 2.68 nM
- koff [8]: 0.00102 s⁻¹
- kon [8]: 381000 M⁻¹ s⁻¹
- EC50 (FOLR1 on OVCAR3 cells): 0.58 nM
- Kd [9]: 2.92 nM
- koff [9]: 0.000659 s⁻¹
- kon [9]: 226000 M⁻¹ s⁻¹
